Measurements taken from the RNAGym collection of RNA variant scans (doi:10.7554/elife.80360).

B1: CPEB3 Ribozyme (parent)
chain: GGGGGCCACAGCAGAAGCGUUCACGUCGCGGCCCCUGUCAGAUUCUGGUGAAUCUGCGAAUUCUGCUGU

Variants of: B1
Test: self-cleavage, relative activity (ratio to wild type); higher = more cleavage; co-transcriptional

Variant	self-cleavage
UGGGGCCACAGCAGAAGCGUUCACGUCGCGGCCCCUGUCAGAUUCUGGUGAAUCUGCGAAUUCUGUUGU [G1U C66U]	0.127
UGGGGCCACAGCAGAAGCGUUCACGUCGCGGCCCCUGUCAGAUUCUGGUGAAUCUACGAAUUCUGCUGU [G1U G56A]	0.111
UGGGGCCACAGCAGAAGCGUUCACGUCGCGGCCCCUGUCAGAUUCUGGUGAAUUUGCGAAUUCUGCUGU [G1U C54U]	0.136
UGGGGCCACAGCAGAAGCGUUCACGUCUCGGCCCCUGUCAGAUUCUGGUGAAUCUGCGAAUUCUGCUGU [G1U G28U]	0.0723
CGGGGCCACAGCAGAAGCGUUCACGUCGCGGCCCCUGACAGAUUCUGGUGAAUCUGCGAAUUCUGCUGU [G1C U38A]	0.267
UGGGGCCACAGAAGAAGCGUUCACGUCGCGGCCCCUGUCAGAUUCUGGUGAAUCUGCGAAUUCUGCUGU [G1U C12A]	0.0761
CGGGGCCACAGCAGAAGCGUUCACGUCGCGGCCCCUGUCAGAUUCUGGUGAAUCUGCGAAUUCUGCUGG [G1C U69G]	0.409
CGGGGCCACAGCAGAAGCGUUCACGUCGCGGCCCCUGUCAGAUUCUGGUGAAUCUGCGAAUUCUGCUGC [G1C U69C]	0.396
CGGGGCCACAGCAGAAGCGUUCACGUCGCGGCCCCUGUCAGAUUCUGGUGAAUCUGCGAAUUCUGCGGU [G1C U67G]	0.312
UGGGGCCACAGCAGAAGCGUUCACGUCGCGGCCUCUGUCAGAUUCUGGUGAAUCUGCGAAUUCUGCUGU [G1U C34U]	0.147
UGGGGCCACGGCAGAAGCGUUCACGUCGCGGCCCCUGUCAGAUUCUGGUGAAUCUGCGAAUUCUGCUGU [G1U A10G]	0.0897
UGGGGCCACCGCAGAAGCGUUCACGUCGCGGCCCCUGUCAGAUUCUGGUGAAUCUGCGAAUUCUGCUGU [G1U A10C]	0.186
UGGGGCCACAGCAGAAGCGUUCCCGUCGCGGCCCCUGUCAGAUUCUGGUGAAUCUGCGAAUUCUGCUGU [G1U A23C]	0.171
UGGGGCCACAGCAGAAGCGUUCGCGUCGCGGCCCCUGUCAGAUUCUGGUGAAUCUGCGAAUUCUGCUGU [G1U A23G]	0.141
UGGGACCACAGCAGAAGCGUUCACGUCGCGGCCCCUGUCAGAUUCUGGUGAAUCUGCGAAUUCUGCUGU [G1U G5A]	0.101
UGGGUCCACAGCAGAAGCGUUCACGUCGCGGCCCCUGUCAGAUUCUGGUGAAUCUGCGAAUUCUGCUGU [G1U G5U]	0.0243
CGGGGCCACAGCAGAAGCGUUCACGUCGCGGCCCCUGUCAGAUUCUGGUGAAUCUGCGAAUUCGGCUGU [G1C U64G]	0.204
UGGGGCCACAGCGGAAGCGUUCACGUCGCGGCCCCUGUCAGAUUCUGGUGAAUCUGCGAAUUCUGCUGU [G1U A13G]	0.0953
UGGGGCCACAGCCGAAGCGUUCACGUCGCGGCCCCUGUCAGAUUCUGGUGAAUCUGCGAAUUCUGCUGU [G1U A13C]	0.0972
CGGGGCCACAGCAGAAGCGUUCACGUCGCGGCCCCUGUCAGAUCCUGGUGAAUCUGCGAAUUCUGCUGU [G1C U44C]	0.232
UGGGGCCAAAGCAGAAGCGUUCACGUCGCGGCCCCUGUCAGAUUCUGGUGAAUCUGCGAAUUCUGCUGU [G1U C9A]	0.181
UGGGGCCACAGCAGAAGCGCUCACGUCGCGGCCCCUGUCAGAUUCUGGUGAAUCUGCGAAUUCUGCUGU [G1U U20C]	0.068
UGGGGCCACAGCAGAAGCGGUCACGUCGCGGCCCCUGUCAGAUUCUGGUGAAUCUGCGAAUUCUGCUGU [G1U U20G]	0.0369
UGGGGCCACAGCAGAAGCGUUCACGUCGCGGCGCCUGUCAGAUUCUGGUGAAUCUGCGAAUUCUGCUGU [G1U C33G]	0.102
UGGGGCCACAGCAGAAGCGUUCACGUCGCGGCUCCUGUCAGAUUCUGGUGAAUCUGCGAAUUCUGCUGU [G1U C33U]	0.214
UGGGGCCACAGCAGAAGCGUUCACGUCGCGGCCCGUGUCAGAUUCUGGUGAAUCUGCGAAUUCUGCUGU [G1U C35G]	0.0241

Variant	self-cleavage
UGGGGCCACAGCAGAGGCGUUCACGUCGCGGCCCCUGUCAGAUUCUGGUGAAUCUGCGAAUUCUGCUGU [G1U A16G]	0.108
UGGGGCCACAGCAGAUGCGUUCACGUCGCGGCCCCUGUCAGAUUCUGGUGAAUCUGCGAAUUCUGCUGU [G1U A16U]	0.103
UGGGGCCACAGCAGUAGCGUUCACGUCGCGGCCCCUGUCAGAUUCUGGUGAAUCUGCGAAUUCUGCUGU [G1U A15U]	0.0945
UGGGGCCACAGCAGAAGCGUUCACGUCGCAGCCCCUGUCAGAUUCUGGUGAAUCUGCGAAUUCUGCUGU [G1U G30A]	0.0902
UUGGGCCACAGCAGAAGCGUUCACGUCGCGGCCCCUGUCAGAUUCUGGUGAAUCUGCGAAUUCUGCUGU [G1U G2U]	0.392
CGGGGCCACAGCAGAAGCGUUCACGUCGCGGCCCCUGUCAGAUUCUGGUGAAUCUUCGAAUUCUGCUGU [G1C G56U]	0.224
UGGGGCCACAUCAGAAGCGUUCACGUCGCGGCCCCUGUCAGAUUCUGGUGAAUCUGCGAAUUCUGCUGU [G1U G11U]	0.129
UGGGGCCACACCAGAAGCGUUCACGUCGCGGCCCCUGUCAGAUUCUGGUGAAUCUGCGAAUUCUGCUGU [G1U G11C]	0.118
UGGGGCCACAGCAGAAGCGUUCACGUCGCGGCCCCUGUCAGAUUAUGGUGAAUCUGCGAAUUCUGCUGU [G1U C45A]	0.11
UGGGGCCACAGCAGAAACGUUCACGUCGCGGCCCCUGUCAGAUUCUGGUGAAUCUGCGAAUUCUGCUGU [G1U G17A]	0.0548
UGGGGCCACAGCAGAACCGUUCACGUCGCGGCCCCUGUCAGAUUCUGGUGAAUCUGCGAAUUCUGCUGU [G1U G17C]	0.0433
UGGGGCCACAGCAGAAGCGUUCACGUCGCGGCCCCUGUCAGAUUCUGGUAAAUCUGCGAAUUCUGCUGU [G1U G50A]	0.139
CGGGGCCACAGCAGAAGCGUUCACGUCGCGGCCCCUGUCAGAUUCUGGUGAAUCUGCGAAAUCUGCUGU [G1C U61A]	0.253
UGGGGCCACAGCAGAAGCGUUCACGUCGCGGCCCCUGUCAGAUUCUGGUGACUCUGCGAAUUCUGCUGU [G1U A52C]	0.112
CGGGGCCACAGCAGAAGCGUUCACGUCGCGGCCCCUGUCAGAUUCUGGUGAAUCUGCGAAUCCUGCUGU [G1C U62C]	0.264
UGGGGCCACAGCAGAAGCGUUCACGACGCGGCCCCUGUCAGAUUCUGGUGAAUCUGCGAAUUCUGCUGU [G1U U26A]	0.0674
UGGGGCCACAGCAGAAGCGUUCACGGCGCGGCCCCUGUCAGAUUCUGGUGAAUCUGCGAAUUCUGCUGU [G1U U26G]	0.0529
UGGGGCCACAGCAGAAGCGUUCACGUCGCGGCCCCUGUCGGAUUCUGGUGAAUCUGCGAAUUCUGCUGU [G1U A40G]	0.0819
UGGGGCCACAGCAGAAGCGUUCACGUCGCGGCCCCUGUCUGAUUCUGGUGAAUCUGCGAAUUCUGCUGU [G1U A40U]	0.0879
UGGGGCCACAGCAGAAGCGUUCACGUUGCGGCCCCUGUCAGAUUCUGGUGAAUCUGCGAAUUCUGCUGU [G1U C27U]	0.0539
UGGGGCCACAGCAGAAGCGUUCACCUCGCGGCCCCUGUCAGAUUCUGGUGAAUCUGCGAAUUCUGCUGU [G1U G25C]	0.0418
UGGGGCCACAGCAGAAGCGUUCACUUCGCGGCCCCUGUCAGAUUCUGGUGAAUCUGCGAAUUCUGCUGU [G1U G25U]	0.0227
UGGGGCCACAGCAGAAGCGUUCACAUCGCGGCCCCUGUCAGAUUCUGGUGAAUCUGCGAAUUCUGCUGU [G1U G25A]	0.0632
CGGGGCCACAGCAGAAGCGUACACGUCGCGGCCCCUGUCAGAUUCUGGUGAAUCUGCGAAUUCUGCUGU [G1C U21A]	0.246
UGGGGCCACAGCAGAAGCUUUCACGUCGCGGCCCCUGUCAGAUUCUGGUGAAUCUGCGAAUUCUGCUGU [G1U G19U]	0.0505
UGGGGCCACAGCAGAAGCCUUCACGUCGCGGCCCCUGUCAGAUUCUGGUGAAUCUGCGAAUUCUGCUGU [G1U G19C]	0.0611

Variant	self-cleavage
CGGGGCCACAGCAGAAGCGUUCACGUCGCGGCCCCUGUCAGAUUCUGGUGAAUCUGCGAAUUCUCCUGU [G1C G65C]	0.174
CGGGGCCACAGCAGAAGCGUUCACGUCGCGGCCCCUGUCAGAUUCUGGUGAAUCUGCGAAUUCUACUGU [G1C G65A]	0.134
CGGGGCCACAGCAGAAGCGUUCACGUCGCGGCCCCGGUCAGAUUCUGGUGAAUCUGCGAAUUCUGCUGU [G1C U36G]	0.297
CGGGGCCACAGCAGAAGCGUUCACGUCGCGGCCCCUGUCAGAUUCUGGAGAAUCUGCGAAUUCUGCUGU [G1C U49A]	0.287
UGGGGCCACAGCAGAAGCGUUCAUGUCGCGGCCCCUGUCAGAUUCUGGUGAAUCUGCGAAUUCUGCUGU [G1U C24U]	0.0825
UGGGGCCACAGCAGAAGCGUUCAAGUCGCGGCCCCUGUCAGAUUCUGGUGAAUCUGCGAAUUCUGCUGU [G1U C24A]	0.0939
CGGGGCCACAGCAGAAGCGUUCACGACGCGGCCCCUGUCAGAUUCUGGUGAAUCUGCGAAUUCUGCUGU [G1C U26A]	0.165
UGGGGCUACAGCAGAAGCGUUCACGUCGCGGCCCCUGUCAGAUUCUGGUGAAUCUGCGAAUUCUGCUGU [G1U C7U]	0.0859
UGGGGCCACAGCAGAAGAGUUCACGUCGCGGCCCCUGUCAGAUUCUGGUGAAUCUGCGAAUUCUGCUGU [G1U C18A]	0.0311
UGGGGCCACAGCAGAAGCGUUCACGUCGCGGCCCCUGUCAGAUUCUGGUGAAUCUGCGAAUUGUGCUGU [G1U C63G]	0.111
UGGGGCCGCAGCAGAAGCGUUCACGUCGCGGCCCCUGUCAGAUUCUGGUGAAUCUGCGAAUUCUGCUGU [G1U A8G]	0.0916
UGGGGCCACAGCAGAAGCGUUCACGUCGCGGCCCCUGUCAGAUUCUGGUGAAUCUGCGAGUUCUGCUGU [G1U A60G]	0.128
UGGGGCCACAGCAGAAGCGUUCACGUCGCGGCCCCUGUCAGAUUCUGGUGAAUCUGCGAUUUCUGCUGU [G1U A60U]	0.033
CGGGGCCACAGCAGAAGCGUUCACGUCGCGGCCCCUGUCAGAUUCAGGUGAAUCUGCGAAUUCUGCUGU [G1C U46A]	0.208
CGGGGCCACAGCAGAAGCGUUCACGUCGCGGCCCCUGUCAGAUUCGGGUGAAUCUGCGAAUUCUGCUGU [G1C U46G]	0.234
CGGGGCCACAGCAGAAGCGAUCACGUCGCGGCCCCUGUCAGAUUCUGGUGAAUCUGCGAAUUCUGCUGU [G1C U20A]	0.0802
UGGGGCCACAGCAUAAGCGUUCACGUCGCGGCCCCUGUCAGAUUCUGGUGAAUCUGCGAAUUCUGCUGU [G1U G14U]	0.0869
UGGGGCCACAGCAGAAGCGUUCACGUCGCGGCCCCUGUGAGAUUCUGGUGAAUCUGCGAAUUCUGCUGU [G1U C39G]	0.103
UGGGGCCACAGCAGAAGCGUUCACGUCGCGGCCCCUGUCAGAUUCUCGUGAAUCUGCGAAUUCUGCUGU [G1U G47C]	0.0959
UGGGGCCACAGCAGAAGCGUUCACGUCGCGGCCCCUGUCAGAUUCUGGUGAAUCUGAGAAUUCUGCUGU [G1U C57A]	0.0933
UGGGGCCACAGCAGAAGCGUACACGUCGCGGCCCCUGUCAGAUUCUGGUGAAUCUGCGAAUUCUGCUGU [G1U U21A]	0.054
UGGGGCCACAGCAGAAGCGUUCACGUCGCGGCCCCUUUCAGAUUCUGGUGAAUCUGCGAAUUCUGCUGU [G1U G37U]	0.0468
UGGGGCCACAGCAGAAGCGUUCACGUCGCGGCCCCUCUCAGAUUCUGGUGAAUCUGCGAAUUCUGCUGU [G1U G37C]	0.0508
UGGGGCCACAGCAGAAGCGUUCACGUCGCGGCCCCUGUCAGAUUCUGGUGAAUCUGCAAAUUCUGCUGU [G1U G58A]	0.0859
CGGGGCCACAGCAGAAGCGUUCACGUCGCGGCCCCUGUCAGAUUCUGGUGAAUCGGCGAAUUCUGCUGU [G1C U55G]	0.135
CGGGGCCACAGCAGAAGCGUUCACGUCGCGGCCCCUGUCAGAUUCUGGUGAACCUGCGAAUUCUGCUGU [G1C U53C]	0.0726
